Results reported in publication PMC10365013 (2022).

How the values were obtained:
PP1CA-MRAS = PP1CA-MRAS (Homo sapiens, UniProt P62136); assay: ITC
PP1CA-KRAS = PP1CA-KRAS (Homo sapiens, UniProt P62136); assay: SPR
PP1CA-NRAS = PP1CA-NRAS (Homo sapiens, UniProt P62136); assay: SPR
PP1CA-HRAS = PP1CA-HRAS (Homo sapiens, UniProt P62136); assay: SPR

Kd (PP1CA-MRAS): ~350 nM
Kd (PP1CA-KRAS): 700 nM
Kd (PP1CA-NRAS): 4000 nM
Kd (PP1CA-HRAS): 2000 nM
B1: SHOC2 (protein)
chain: MSSSLGKEKDSKEKDPKVPSAKEREKEAKASGGFGKESKEKEPKTKGKDAKDGKKDSSAAQPGVAFSVDNTIKRPNPAPGTRKKSSNAEVIKELNKCREENSMRLDLSKRSIHILPSSIKELTQLTELYLYSNKLQSLPAEVGCLVNLMTLALSENSLTSLPDSLDNLKKLRMLDLRHNKLREIPSVVYRLDSLTTLYLRFNRITTVEKDIKNLSKLSMLSIRENKIKQLPAEIGELCNLITLDVAHNQLEHLPKEIGNCTQITNLDLQHNELLDLPDTIGNLSSLSRLGLRYNRLSAIPRSLAKCSALEELNLENNNISTLPESLLSSLVKLNSLTLARNCFQLYPVGGPSQFSTIYSLNMEHNRINKIPFGIFSRAKVLSKLNMKDNQLTSLPLDFGTWTSMVELNLATNQLTKIPEDVSGLVSLEVLILSNNLLKKLPHGLGNLRKLRELDLEENKLESLPNEIAYLKDLQKLVLTNNQLTTLPRGIGHLTNLTHLGLGENLLTHLPEEIGTLENLEELYLNDNPNLHSLPFELALCSKLSIMSIENCPLSHLPPQIVAGGPSFIIQFLKMQGPYRAMV
modifications: GMPPNP
